Residue numbers refer to the chain shown, from its start.
T1: human Calcitonin Gene Related Peptide alpha (Homo sapiens, C-terminal amide (-NH2 printed after the last residue F; the filing words it as 'the N-terminal phenylalanine is amidated'); 125I radiolabeled in the receptor binding assay of Example 6)
T1 construct: 37-residue peptide bought from American Peptides and Bachem; Coated directly on plates in the ELISA of the recombinant antibodies; also called CGRPα; CGRP-alpha
T1 peptide: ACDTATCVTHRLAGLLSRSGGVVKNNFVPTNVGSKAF

B1: Antibody Ab1 (antibody, human IgG1, kappa, N297A, V domains shown)
VH: QSLEESGGRLVTPGTPLTLTCTVSGLDLSSYYMQWVRQAPGKGLEWIGVIGINDNTYYASWAKGRFTISRASSTTVDLKMTSLTTEDTATYFCARGDIWGPGTLVTVSS
VL: QVLTQTASPVSAAVGSTVTINCQASQSVYDNNYLAWYQQKPGQPPKQLIYSTSTLASGVSSRFKGSGSGTQFTLTISDLECADAATYYCLGSYDCSSGDCFVFGGGTEVVVKR
notes: Chimeric anti-CGRP antibody (rabbit variable regions, human gamma-1 and kappa constant regions), full length
B2: Antibody Ab2 (antibody, human IgG1, kappa, N297A)
heavy: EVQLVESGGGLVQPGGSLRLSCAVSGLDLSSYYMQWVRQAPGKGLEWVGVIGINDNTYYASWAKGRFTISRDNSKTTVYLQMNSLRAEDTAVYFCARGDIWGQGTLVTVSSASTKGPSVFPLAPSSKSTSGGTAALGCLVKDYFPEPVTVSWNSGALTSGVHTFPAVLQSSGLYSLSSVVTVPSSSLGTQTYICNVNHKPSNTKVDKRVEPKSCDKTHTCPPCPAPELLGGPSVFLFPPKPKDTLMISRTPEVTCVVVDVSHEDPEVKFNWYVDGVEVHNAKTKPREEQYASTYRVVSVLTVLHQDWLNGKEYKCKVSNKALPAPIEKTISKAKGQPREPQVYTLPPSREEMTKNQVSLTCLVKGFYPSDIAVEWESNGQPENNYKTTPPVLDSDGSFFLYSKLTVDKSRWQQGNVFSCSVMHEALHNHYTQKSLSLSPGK
light: QVLTQSPSSLSASVGDRVTINCQASQSVYDNNYLAWYQQKPGKVPKQLIYSTSTLASGVPSRFSGSGSGTDFTLTISSLQPEDVATYYCLGSYDCSSGDCFVFGGGTKVEIKRTVAAPSVFIFPPSDEQLKSGTASVVCLLNNFYPREAKVQWKVDNALQSGNSQESVTEQDSKDSTYSLSSTLTLSKADYEKHKVYACEVTHQGLSSPVTKSFNRGEC
notes: Humanized anti-CGRP antibody, full length
B3: Antibody Ab3 (antibody, human IgG1, kappa, N297A)
heavy: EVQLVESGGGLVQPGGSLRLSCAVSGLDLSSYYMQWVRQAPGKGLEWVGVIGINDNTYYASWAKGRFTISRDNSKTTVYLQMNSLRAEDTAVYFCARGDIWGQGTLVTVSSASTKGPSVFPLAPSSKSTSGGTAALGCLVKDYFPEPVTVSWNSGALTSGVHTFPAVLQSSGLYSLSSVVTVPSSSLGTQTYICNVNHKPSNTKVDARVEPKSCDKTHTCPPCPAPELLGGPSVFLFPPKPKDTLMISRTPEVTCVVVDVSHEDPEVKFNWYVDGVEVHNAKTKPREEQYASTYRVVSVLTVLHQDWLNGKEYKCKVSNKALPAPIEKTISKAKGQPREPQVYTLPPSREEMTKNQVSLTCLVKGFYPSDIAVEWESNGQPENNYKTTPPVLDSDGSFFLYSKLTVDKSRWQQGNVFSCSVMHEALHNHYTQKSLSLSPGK
light: B2 light
B4: Antibody Ab5 (antibody, human IgG1, kappa, N297A)
heavy: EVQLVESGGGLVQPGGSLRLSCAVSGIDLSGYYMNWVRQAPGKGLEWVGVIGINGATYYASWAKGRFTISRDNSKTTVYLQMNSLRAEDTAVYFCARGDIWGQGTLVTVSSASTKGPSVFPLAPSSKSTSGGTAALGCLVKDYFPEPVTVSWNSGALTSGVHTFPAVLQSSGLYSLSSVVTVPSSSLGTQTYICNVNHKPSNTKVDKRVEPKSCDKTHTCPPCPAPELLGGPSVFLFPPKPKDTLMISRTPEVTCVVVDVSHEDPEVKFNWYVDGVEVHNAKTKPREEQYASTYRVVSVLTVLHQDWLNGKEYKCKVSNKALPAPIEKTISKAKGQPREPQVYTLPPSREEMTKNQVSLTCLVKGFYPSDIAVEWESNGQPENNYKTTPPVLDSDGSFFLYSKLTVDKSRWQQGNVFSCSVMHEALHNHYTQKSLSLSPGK
light: B2 light with D30H, N32T, S51D, T52A, S96T, S97N
B5: Antibody Ab6 (antibody, human IgG1, kappa, N297A)
heavy: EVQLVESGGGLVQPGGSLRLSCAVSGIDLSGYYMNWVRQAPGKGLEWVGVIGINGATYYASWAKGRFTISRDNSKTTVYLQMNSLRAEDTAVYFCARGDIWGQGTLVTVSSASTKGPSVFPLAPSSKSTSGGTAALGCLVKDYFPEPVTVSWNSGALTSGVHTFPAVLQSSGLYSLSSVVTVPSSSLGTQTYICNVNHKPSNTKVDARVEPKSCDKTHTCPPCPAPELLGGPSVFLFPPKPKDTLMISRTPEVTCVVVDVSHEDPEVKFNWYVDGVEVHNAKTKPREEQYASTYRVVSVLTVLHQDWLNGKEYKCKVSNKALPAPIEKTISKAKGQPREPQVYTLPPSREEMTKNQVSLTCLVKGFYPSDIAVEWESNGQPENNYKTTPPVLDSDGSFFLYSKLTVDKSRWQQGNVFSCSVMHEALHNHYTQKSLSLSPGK
light: B2 light with D30H, N32T, S51D, T52A, S96T, S97N
notes: as for B2
B6: Antibody Ab8 (antibody, human IgG1, kappa, N297A, V domains shown)
VH: EVQLVESGGGLVQPGGSLRLSCAVSGIDLSNHYMQWVRQAPGKGLEWVGVVGINGRTYYASWAKGRFTISRDNSKTTVYLQMNSLRAEDTAVYFCARGDIWGQGTLVTVSS
VL: QVLTQSPSSLSASVGDRVTINCQASQSVYNYNYLAWYQQKPGKVPKQLIYSTSTLASGVPSRFSGSGSGTDFTLTISSLQPEDVATYYCLGSYDCSTGDCFVFGGGTKVEIKR
notes: as for B2
B7: Antibody Ab10 (antibody, human IgG1, kappa, N297A)
heavy: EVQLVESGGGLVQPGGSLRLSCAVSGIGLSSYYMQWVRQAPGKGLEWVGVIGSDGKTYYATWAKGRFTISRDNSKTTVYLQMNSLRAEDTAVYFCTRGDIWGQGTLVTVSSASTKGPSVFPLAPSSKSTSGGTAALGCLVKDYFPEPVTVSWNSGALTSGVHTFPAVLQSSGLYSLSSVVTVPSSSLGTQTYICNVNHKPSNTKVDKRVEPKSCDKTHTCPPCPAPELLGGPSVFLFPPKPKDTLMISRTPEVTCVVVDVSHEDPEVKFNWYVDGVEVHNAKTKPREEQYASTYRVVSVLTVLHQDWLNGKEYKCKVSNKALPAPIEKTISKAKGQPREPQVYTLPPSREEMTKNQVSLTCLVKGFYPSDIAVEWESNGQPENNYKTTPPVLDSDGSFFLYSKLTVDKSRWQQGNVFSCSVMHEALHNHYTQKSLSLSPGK
light: B2 light with S27N, D30N, S97R
notes: as for B2
B8: Antibody Ab12 (antibody, human IgG1, kappa, N297A, V domains shown)
VH: B6 VH with L29V, S30T, H32Y, V51I, I53V, R56K, T57R
VL: B6 VL with Q23R, N30Y, Y31N, T97N
notes: as for B2
B9: Antibody Ab14 (antibody, human IgG1, kappa, N297A)
heavy: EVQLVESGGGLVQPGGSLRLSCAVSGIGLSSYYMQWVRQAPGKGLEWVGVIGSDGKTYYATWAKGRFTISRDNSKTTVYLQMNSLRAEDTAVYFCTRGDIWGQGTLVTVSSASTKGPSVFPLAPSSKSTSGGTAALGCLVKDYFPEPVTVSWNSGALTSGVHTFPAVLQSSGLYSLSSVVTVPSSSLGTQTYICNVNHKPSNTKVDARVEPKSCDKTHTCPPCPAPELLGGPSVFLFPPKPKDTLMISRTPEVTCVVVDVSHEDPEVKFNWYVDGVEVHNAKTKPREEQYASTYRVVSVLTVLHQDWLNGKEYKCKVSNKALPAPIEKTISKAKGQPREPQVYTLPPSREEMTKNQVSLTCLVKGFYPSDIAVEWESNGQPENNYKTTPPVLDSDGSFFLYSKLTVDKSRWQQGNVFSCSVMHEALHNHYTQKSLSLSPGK
light: B2 light with S27N, D30N, S97R
notes: as for B2
B10: Antibody Ab11 (antibody, human IgG1, kappa, N297A, V domains shown)
VH: QSLEESGGRLVTPGGSLTLTCTVSGIDVTNYYMQWVRQAPGKGLEWIGVIGVNGKRYYASWAKGRFTISKTSSTTVDLKMTSLTTEDTATYFCARGDIWGPGTLVTVSS
VL: B1 VL with A12P, Q23R, D30Y, L79V, E80Q, A82D, S97N
notes: Chimeric anti-CGRP antibody, full length
B11: Antibody Ab4 (antibody, human IgG1, kappa, N297A, V domains shown)
VH: B1 VH with T22S, L26I, S30G, Q34N, D54G, N55A, R70K, A71T
VL: QVLTQTPSPVSAAVGSTVTINCQASQSVYHNTYLAWYQQKPGQPPKQLIYDASTLASGVPSRFSGSGSGTQFTLTISGVQCNDAAAYYCLGSYDCTNGDCFVFGGGTEVVVKR
B12: Antibody Ab7 (antibody, human IgG1, kappa, N297A, V domains shown)
VH: QEQLKESGGRLVTPGTSLTLTCTVSGIDLSNHYMQWVRQAPGKGLEWIGVVGINGRTYYASWAKGRFTISRTSSTTVDLKMTRLTTEDTATYFCARGDIWGPGTLVTVSS
VL: B1 VL with D30N, N31Y, L79V, E80Q, A82D, S97T
notes: as for B10
B13: Antibody Ab9 (antibody, human IgG1, kappa, N297A, V domains shown)
VH: QSLEESGGRLVTPGTPLTLTCTVSGIGLSSYYMQWVRQSPGRGLEWIGVIGSDGKTYYATWAKGRFTISKTSSTTVDLRMASLTTEDTATYFCTRGDIWGPGTLVTVSS
VL: B1 VL with A7P, S27N, D30N, K64R, L79V, E80Q, A82D, S97R
notes: as for B10

Target: T1, human Calcitonin Gene Related Peptide …
Assay: ELISA, plates coated with CGRPα, anti-human IgG Fc-HRP detection
Description: To characterize recombinant expressed antibodies for their ability to bind to human-CGRPα, antibody-containing solutions were tested by ELISA. All incubations were done at room temperature. Briefly, Immulon IV plagtes (Thermo Scientific), were coated with a CGRPα containing solution (1 ut/mL in PBS) for 2 hours. CGRPα-coated plates were then washed three times in wash buffer (PBS, 0.05% Tween-20). The plates were then blocked using a blocking solution (PBS, 0.5% fish skin gelatin, 0.05% Tween-20) for approximately one hour. The blocking solution was then removed and the plates were then incubated with a dilution series of the antibody being tested for approximately one hour. At the end of this incubation, the plate was washed three times with wash buffer and further incubated with a secondary antibody containing solution (Peroxidase conjugated affinipure F(ab′)2 fragment goat anti-human IgG, Fc fragment specific (Jackson Immunoresearch) for approximately 45 minutes and washed three times. At that point a substrate solution (TMB peroxidase substrate, BioFx) and incubated for 3 to 5 minutes in the dark. The reaction was stopped by addition of a HCl containing solution (0.5M) and the plate was read at 450 nm in a plate-reader.

Binding result, binds:
B1, B2, B3, B4, B5, B6, B7, B8, B9, B10, B11, B12, B13

Reference: patent publication US20120294802A1 (ALDERBIO, published 2012)
